According to patent US20120034160A1 (AbbVie / Abbott, published 2012):
Where a chain is given by its changes, count along the chain named.

T1: Recombinant Human IL-17 (human, UniProt Q16552 20-155, limits assumed)
T1 construct: bought reagent
T1 sequence (looked up): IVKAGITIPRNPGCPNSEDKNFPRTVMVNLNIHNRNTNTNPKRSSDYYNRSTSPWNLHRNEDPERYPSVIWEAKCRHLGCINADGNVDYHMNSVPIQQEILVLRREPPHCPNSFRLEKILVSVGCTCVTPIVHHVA

B1: DVD1285 (bispecific antibody, human IgG1, kappa)
heavy: not shown
light: EIVLTQSPDFQSVTPKEKVTITCRASQNIGSELHWYQQKPDQSPKLLIKYASHSISGVPSRFSGSGSGTDFTLTINGLEAEDAATYYCHQSDTLPHTFGQGTKVDIKRTVAAPDIQMTQSPSSLSASVGDRVTITCRASGNIHNYLTWYQQTPGKAPKLLIYNAKTLADGVPSRFSGSGSGTDYTFTISSLQPEDIATYYCQHFWSIPYTFGQGTKLQITRTVAAPSVFIFPPSDEQLKSGTASVVCLLNNFYPREAKVQWKVDNALQSGNSQESVTEQDSKDSTYSLSSTLTLSKADYEKHKVYACEVTHQGLSSPVTKSFNRGEC
notes: V1 wt hIgG1, V2 kappa; also called DVD1285H; DVD1285L
B2: DVD1594 (bispecific antibody, human IgG1, kappa)
heavy: not shown
light: DIQMTQSPSSLSASVGDRVTITCRASSGIISYIDWFQQKPGKAPKRLIYATFDLASGVPSRFSGSGSGTDYTLTISSLQPEDFATYYCRQVGSYPETFGQGTKLEIKRTVAAPSVFIFPPDTQVTQSPSSLSASVGDRVTITCITSTDIDVDMNWYQQKPGKPPKLLISQGNTLRPGVPSRFSSSGSGTDFTFTISSLQPEDFATYYCLQSDNLPLTFGQGTKLEIKRTVAAPSVFIFPPSDEQLKSGTASVVCLLNNFYPREAKVQWKVDNALQSGNSQESVTEQDSKDSTYSLSSTLTLSKADYEKHKVYACEVTHQGLSSPVTKSFNRGEC
notes: DVD-Ig, outer AB273, inner AB270, linker set 2; V1 wt hIgG1, V2 kappa; also called DVD1594H; DVD1594L
B3: DVD1598 (bispecific antibody, human IgG1, kappa)
heavy: not shown
light: B2 light with D121E, Q123T
notes: DVD-Ig, outer AB273, inner AB272, linker set 2; V1 wt hIgG1, V2 kappa; also called DVD1598H; DVD1598L
B4: DVD1604 (bispecific antibody, human IgG1, kappa)
heavy: not shown
light: EIVLTQSPDFQSVTPKEKVTITCRASQDIGSELHWYQQKPDQPPKLLIKYASHSTSGVPSRFSGSGSGTDFTLTINGLEAEDAGTYYCHQTDSLPYTFGPGTKVDIKRTVAAPSVFIFPPDTQVTQSPSSLSASVGDRVTITCITSTDIDVDMNWYQQKPGKPPKLLISQGNTLRPGVPSRFSSSGSGTDFTFTISSLQPEDFATYYCLQSDNLPLTFGQGTKLEIKRTVAAPSVFIFPPSDEQLKSGTASVVCLLNNFYPREAKVQWKVDNALQSGNSQESVTEQDSKDSTYSLSSTLTLSKADYEKHKVYACEVTHQGLSSPVTKSFNRGEC
notes: DVD-Ig, outer AB274, inner AB270, linker set 2; V1 wt hIgG1, V2 kappa; also called DVD1604H; DVD1604L
B5: DVD1287 (bispecific antibody, human IgG1, kappa)
heavy: not shown
light: EIVLTQSPDFQSVTPKEKVTITCRASQNIGSELHWYQQKPDQSPKLLIKYASHSISGVPSRFSGSGSGTDFTLTINGLEAEDAATYYCHQSDTLPHTFGQGTKVDIKRTVAAPDTQVTQSPSSLSASVGDRVTITCITSTDIDVDMNWYQQKPGKPPKLLISQGNTLRPGVPSRFSSSGSGTDFTFTISSLQPEDFATYYCLQSDNLPLTFGQGTKLEIKRTVAAPSVFIFPPSDEQLKSGTASVVCLLNNFYPREAKVQWKVDNALQSGNSQESVTEQDSKDSTYSLSSTLTLSKADYEKHKVYACEVTHQGLSSPVTKSFNRGEC
notes: DVD-Ig, outer AB275, inner AB270, linker set 1; V1 wt hIgG1, V2 kappa; also called DVD1287H; DVD1287L
B6: DVD1291 (bispecific antibody, human IgG1, kappa)
heavy: not shown
light: B5 light with D114E, Q116T
notes: DVD-Ig, outer AB275, inner AB272, linker set 1; V1 wt hIgG1, V2 kappa; also called DVD1291H; DVD1291L
B7: DVD1596 (bispecific antibody, human IgG1, kappa)
heavy: not shown
light: DIQMTQSPSSLSASVGDRVTITCRASSGIISYIDWFQQKPGKAPKRLIYATFDLASGVPSRFSGSGSGTDYTLTISSLQPEDFATYYCRQVGSYPETFGQGTKLEIKRTVAAPSVFIFPPDTVVTQSPAFLSVTPGEKVTITCITSTDIDVDMNWYQQKPDQPPKLLISQGNTLRPGVPSRFSSSGSGTDFTFTISSLEAEDAATYYCLQSDNLPLTFGQGTKLEIKRTVAAPSVFIFPPSDEQLKSGTASVVCLLNNFYPREAKVQWKVDNALQSGNSQESVTEQDSKDSTYSLSSTLTLSKADYEKHKVYACEVTHQGLSSPVTKSFNRGEC
notes: DVD-Ig, outer AB273, inner AB271, linker set 2; V1 wt hIgG1, V2 kappa; also called DVD1596H; DVD1596L
B8: DVD1590 (bispecific antibody, human IgG1, kappa)
heavy: not shown
light: DIQMTQSPSSLSASVGDRVTITCRASSGIISYIDWFQQKPGKAPKRLIYATFDLASGVPSRFSGSGSGTDYTLTISSLQPEDFATYYCRQVGSYPETFGQGTKLEIKRTVAAPSVFIFPPDIQMTQSPSSLSASVGDRVTITCRASGNIHNYLTWYQQTPGKAPKLLIYNAKTLADGVPSRFSGSGSGTDYTFTISSLQPEDIATYYCQHFWSIPYTFGQGTKLQITRTVAAPSVFIFPPSDEQLKSGTASVVCLLNNFYPREAKVQWKVDNALQSGNSQESVTEQDSKDSTYSLSSTLTLSKADYEKHKVYACEVTHQGLSSPVTKSFNRGEC
notes: V1 wt hIgG1, V2 kappa; also called DVD1590H; DVD1590L
B9: DVD1592 (bispecific antibody, human IgG1, kappa)
heavy: not shown
light: B8 light
notes: V1 wt hIgG1, V2 kappa; also called DVD1592H; DVD1592L
B10: DVD1289 (bispecific antibody, human IgG1, kappa)
heavy: not shown
light: EIVLTQSPDFQSVTPKEKVTITCRASQNIGSELHWYQQKPDQSPKLLIKYASHSISGVPSRFSGSGSGTDFTLTINGLEAEDAATYYCHQSDTLPHTFGQGTKVDIKRTVAAPDTVVTQSPAFLSVTPGEKVTITCITSTDIDVDMNWYQQKPDQPPKLLISQGNTLRPGVPSRFSSSGSGTDFTFTISSLEAEDAATYYCLQSDNLPLTFGQGTKLEIKRTVAAPSVFIFPPSDEQLKSGTASVVCLLNNFYPREAKVQWKVDNALQSGNSQESVTEQDSKDSTYSLSSTLTLSKADYEKHKVYACEVTHQGLSSPVTKSFNRGEC
notes: DVD-Ig, outer AB275, inner AB271, linker set 1; V1 wt hIgG1, V2 kappa; also called DVD1289H; DVD1289L
B11: DVD1600 (bispecific antibody, human IgG1, kappa)
heavy: not shown
light: EIVLTQSPDFQSVTPKEKVTITCRASQDIGSELHWYQQKPDQPPKLLIKYASHSTSGVPSRFSGSGSGTDFTLTINGLEAEDAGTYYCHQTDSLPYTFGPGTKVDIKRTVAAPSVFIFPPDIQMTQSPSSLSASVGDRVTITCRASGNIHNYLTWYQQTPGKAPKLLIYNAKTLADGVPSRFSGSGSGTDYTFTISSLQPEDIATYYCQHFWSIPYTFGQGTKLQITRTVAAPSVFIFPPSDEQLKSGTASVVCLLNNFYPREAKVQWKVDNALQSGNSQESVTEQDSKDSTYSLSSTLTLSKADYEKHKVYACEVTHQGLSSPVTKSFNRGEC
notes: V1 wt hIgG1, V2 kappa; also called DVD1600H; DVD1600L
B12: DVD1602 (bispecific antibody, human IgG1, kappa)
heavy: not shown
light: B11 light
notes: V1 wt hIgG1, V2 kappa; also called DVD1602H; DVD1602L

molecular target: T2, Recombinant Human IL-1β (human, UniProt P01584 117-269); test: Biacore SPR; C-terminal VD
T2 construct: bought reagent; also called IL-1B
Protocol: (§1) The BIACORE assay (Biacore, Inc, Piscataway, N.J.) determines the affinity of antibodies or DVD-Ig with kinetic measurements of on-rate and off-rate constants. Binding of antibodies or DVD-Ig to a target antigen (for example, a purified recombinant target antigen) was determined by surface plasmon resonance-based measurements with a Biacore® 1000 or 3000 instrument (Biacore® AB, Uppsala, Sweden) using running HBS-EP (10 mM HEPES [pH 7.4], 150 mM NaCl, 3 mM EDTA, and 0.005% surfactant P20) at 25° C. All chemicals were obtained from Biacore® AB (Uppsala, Sweden) or otherwise from a different source as described in the text. For example, approximately 5000 RU of goat anti-mouse IgG, (Fcγ), fragment specific polyclonal antibody (Pierce Biotechnology Inc, Rockford, Ill.) diluted in 10 mM sodium acetate (pH 4.5) was directly immobilized across a CM5 research grade biosensor chip using a standard amine coupling kit according to manufacturer's instructions and procedures at 25 μg/ml. Unreacted moieties on the biosensor surface were blocked with ethanolamine. Modified carboxymethyl dextran surface in flowcell 2 and 4 was used as a reaction surface. Unmodified carboxymethyl dextran without goat anti-mouse IgG in flow cell 1 and 3 was used as the reference surface. For kinetic analysis, rate equations derived from the 1:1 Langmuir binding model were fitted simultaneously to association and dissociation phases of all eight injections (using global fit analysis) with the use of Biaevaluation 4.0.1 software. Purified antibodies or DVD-Ig were diluted in HEPES-buffered saline for capture across goat anti-mouse IgG specific reaction surfaces. Antibodies or DVD-Ig to be captured as a ligand (25 μg/ml) were injected over reaction matrices at a flow rate of 5 μl/min. The association and dissociation rate constants, kₒₙ (M⁻¹s⁻¹) and koff (s⁻¹) were determined under a continuous flow rate of 25 μl/min. Rate constants were derived by making kinetic binding measurements at different antigen concentrations ranging from 10−200 nM. The equilibrium dissociation constant (M) of the reaction between antibodies or DVD-Igs and the target antigen was then calculated from the kinetic rate constants by the following formula: KD=koff/kₒₙ. Binding was recorded as a function of time and kinetic rate constants are calculated.

Kd [nM]	koff [s⁻¹]	kon [M⁻¹ s⁻¹]	Binder
0.24	0.0002	820000	B1
0.6	0.00043	710000	B2
1.2	0.00074	630000	B3
0.29	0.00037	1.3e+06	B4
1.2	0.00037	310000	B5
2.8	0.00058	210000	B6
0.51	0.00036	700000	B7
0.19	4.6e-05	250000	B8
0.0072	4.9e-06	690000	B9
1.3	0.00048	370000	B10
0.55	9.4e-05	170000	B11
0.18	2.3e-05	130000	B12

molecular target: T1, Recombinant Human IL-17; test: Biacore SPR; N-terminal VD
Protocol: as §1

Kd [nM]	koff [s⁻¹]	kon [M⁻¹ s⁻¹]	Binder
0.39	5.8e-05	150000	B1
0.0056	2.3e-05	4.2e+06	B2
0.0051	1.8e-05	3.5e+06	B3
0.0026	9.7e-06	3.8e+06	B4
0.3	4.7e-05	160000	B5
0.048	6e-07	12000	B6
0.0033	1.3e-05	4.1e+06	B7
0.0018	7e-06	3.8e+06	B8
0.0064	2e-05	3.2e+06	B9
0.4	5.6e-05	140000	B10
≤ 0.0038	< 1e-06	2.8e+06	B11
0.0051	1.4e-05	2.7e+06	B12
